Data published in patent publication US20230250154A1 (CYTONICS, published 2023).
Blank lines part the entries; values can stand above or below the binder they belong to.

Key:
Test in all cases: cell-based or functional assay
MMP8 = MMP8 (human, UniProt P22894 101-467, limits assumed)
MMP7 = target: T1, MMP7 (UniProt P09237 95-267, limits assumed)
T1 sequence (looked up): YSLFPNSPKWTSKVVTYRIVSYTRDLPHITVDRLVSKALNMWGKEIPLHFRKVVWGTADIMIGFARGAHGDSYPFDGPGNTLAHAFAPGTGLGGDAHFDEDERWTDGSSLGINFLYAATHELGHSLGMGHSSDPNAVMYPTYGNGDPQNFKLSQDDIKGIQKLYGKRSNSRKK

Elastase = target: Elastase
ADAMTS5 = target: T2, ADAMTS5 (human, UniProt Q9UNA0 262-622, limits assumed)
T2 sequence (looked up): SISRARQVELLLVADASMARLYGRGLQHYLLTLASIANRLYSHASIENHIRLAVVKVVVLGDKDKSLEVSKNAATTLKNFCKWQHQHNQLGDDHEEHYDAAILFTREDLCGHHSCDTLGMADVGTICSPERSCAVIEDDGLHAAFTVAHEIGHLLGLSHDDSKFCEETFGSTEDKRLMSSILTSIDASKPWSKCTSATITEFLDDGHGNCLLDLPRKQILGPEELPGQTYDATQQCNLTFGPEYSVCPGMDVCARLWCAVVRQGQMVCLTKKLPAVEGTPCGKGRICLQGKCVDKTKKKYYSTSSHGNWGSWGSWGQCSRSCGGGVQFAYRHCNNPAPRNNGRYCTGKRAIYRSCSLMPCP

MMP2 = target: T3, MMP2 (human, UniProt P08253 110-660, limits assumed)
T3 sequence (looked up): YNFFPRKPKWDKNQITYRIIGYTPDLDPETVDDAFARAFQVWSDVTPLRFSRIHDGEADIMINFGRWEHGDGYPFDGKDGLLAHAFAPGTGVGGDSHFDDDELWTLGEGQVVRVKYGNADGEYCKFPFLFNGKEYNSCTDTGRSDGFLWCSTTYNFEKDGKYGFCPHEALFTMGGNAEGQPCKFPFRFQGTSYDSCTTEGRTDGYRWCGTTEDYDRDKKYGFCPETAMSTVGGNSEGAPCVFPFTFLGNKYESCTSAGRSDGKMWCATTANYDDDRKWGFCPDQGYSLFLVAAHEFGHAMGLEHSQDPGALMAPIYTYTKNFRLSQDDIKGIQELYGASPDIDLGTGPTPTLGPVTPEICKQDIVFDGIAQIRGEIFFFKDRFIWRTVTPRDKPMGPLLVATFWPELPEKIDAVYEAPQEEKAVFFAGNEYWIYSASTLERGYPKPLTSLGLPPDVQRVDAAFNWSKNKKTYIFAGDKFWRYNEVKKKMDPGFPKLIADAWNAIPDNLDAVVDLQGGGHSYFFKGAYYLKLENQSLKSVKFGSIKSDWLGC

MMP1 = target: T4, MMP1 (human, UniProt P03956 100-469, limits assumed)
T4 sequence (looked up): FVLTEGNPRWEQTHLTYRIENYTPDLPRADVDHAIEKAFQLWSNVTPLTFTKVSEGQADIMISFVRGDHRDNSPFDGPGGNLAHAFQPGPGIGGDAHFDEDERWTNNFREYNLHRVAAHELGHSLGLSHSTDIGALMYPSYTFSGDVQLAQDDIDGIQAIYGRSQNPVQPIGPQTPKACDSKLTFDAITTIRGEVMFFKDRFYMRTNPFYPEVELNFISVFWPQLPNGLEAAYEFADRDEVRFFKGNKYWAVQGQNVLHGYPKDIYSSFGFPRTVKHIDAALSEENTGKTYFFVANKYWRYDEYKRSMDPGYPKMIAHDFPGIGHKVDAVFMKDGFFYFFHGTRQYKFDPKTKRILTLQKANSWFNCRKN

MMP13 = MMP13 (human, UniProt P45452 104-471, limits assumed)
MMP9 = MMP9 (human, UniProt P14780 107-707, limits assumed)
Cathepsin G = target: T5, Cathepsin G (UniProt P08311 21-244)
T5 sequence (looked up): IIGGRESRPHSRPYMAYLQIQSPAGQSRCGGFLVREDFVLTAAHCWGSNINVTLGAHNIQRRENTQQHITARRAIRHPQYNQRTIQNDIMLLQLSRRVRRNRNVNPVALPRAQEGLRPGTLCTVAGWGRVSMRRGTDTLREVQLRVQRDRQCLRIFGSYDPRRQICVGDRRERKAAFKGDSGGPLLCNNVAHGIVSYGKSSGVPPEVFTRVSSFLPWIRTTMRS

ADAMTS4 = target: T6, ADAMTS4 (human, UniProt O75173 213-685, limits assumed)
T6 sequence (looked up): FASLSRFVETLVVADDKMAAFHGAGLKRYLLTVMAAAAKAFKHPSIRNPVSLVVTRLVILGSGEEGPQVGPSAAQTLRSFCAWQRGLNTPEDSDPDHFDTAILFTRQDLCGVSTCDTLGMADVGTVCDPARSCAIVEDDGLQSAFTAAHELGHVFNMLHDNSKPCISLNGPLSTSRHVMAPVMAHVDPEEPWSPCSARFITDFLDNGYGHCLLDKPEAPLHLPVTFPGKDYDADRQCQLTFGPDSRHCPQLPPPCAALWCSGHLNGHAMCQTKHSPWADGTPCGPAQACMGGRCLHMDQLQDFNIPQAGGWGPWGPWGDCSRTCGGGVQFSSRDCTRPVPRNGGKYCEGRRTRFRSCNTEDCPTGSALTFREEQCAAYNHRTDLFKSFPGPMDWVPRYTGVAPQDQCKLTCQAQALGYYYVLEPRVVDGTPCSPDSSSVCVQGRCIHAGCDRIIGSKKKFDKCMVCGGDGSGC

MMP3 = MMP3 (human, UniProt P08254 100-477, limits assumed)
Chain of MMP3 (P08254 100-477 limits assumed): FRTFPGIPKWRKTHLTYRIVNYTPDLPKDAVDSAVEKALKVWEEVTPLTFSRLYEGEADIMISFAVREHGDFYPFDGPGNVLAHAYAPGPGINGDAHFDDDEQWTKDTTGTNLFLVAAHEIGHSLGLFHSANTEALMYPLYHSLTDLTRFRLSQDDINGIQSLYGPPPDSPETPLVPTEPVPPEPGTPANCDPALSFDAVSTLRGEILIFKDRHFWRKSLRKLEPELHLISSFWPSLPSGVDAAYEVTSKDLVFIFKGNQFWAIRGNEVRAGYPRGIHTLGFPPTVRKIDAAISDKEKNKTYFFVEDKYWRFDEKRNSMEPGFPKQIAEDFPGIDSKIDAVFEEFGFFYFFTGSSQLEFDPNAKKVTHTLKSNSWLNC

Chain of MMP8 (P22894 101-467 limits assumed): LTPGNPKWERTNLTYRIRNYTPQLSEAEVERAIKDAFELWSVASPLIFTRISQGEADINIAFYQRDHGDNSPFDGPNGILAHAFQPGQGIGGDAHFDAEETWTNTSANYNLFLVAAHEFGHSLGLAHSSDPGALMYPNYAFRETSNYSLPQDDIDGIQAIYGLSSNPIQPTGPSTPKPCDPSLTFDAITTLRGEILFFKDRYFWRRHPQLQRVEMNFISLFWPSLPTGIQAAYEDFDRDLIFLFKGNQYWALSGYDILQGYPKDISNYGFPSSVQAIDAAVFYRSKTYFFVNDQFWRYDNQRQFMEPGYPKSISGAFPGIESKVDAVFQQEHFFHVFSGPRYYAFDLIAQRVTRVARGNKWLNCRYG
Chain of MMP9 (P14780 107-707 limits assumed): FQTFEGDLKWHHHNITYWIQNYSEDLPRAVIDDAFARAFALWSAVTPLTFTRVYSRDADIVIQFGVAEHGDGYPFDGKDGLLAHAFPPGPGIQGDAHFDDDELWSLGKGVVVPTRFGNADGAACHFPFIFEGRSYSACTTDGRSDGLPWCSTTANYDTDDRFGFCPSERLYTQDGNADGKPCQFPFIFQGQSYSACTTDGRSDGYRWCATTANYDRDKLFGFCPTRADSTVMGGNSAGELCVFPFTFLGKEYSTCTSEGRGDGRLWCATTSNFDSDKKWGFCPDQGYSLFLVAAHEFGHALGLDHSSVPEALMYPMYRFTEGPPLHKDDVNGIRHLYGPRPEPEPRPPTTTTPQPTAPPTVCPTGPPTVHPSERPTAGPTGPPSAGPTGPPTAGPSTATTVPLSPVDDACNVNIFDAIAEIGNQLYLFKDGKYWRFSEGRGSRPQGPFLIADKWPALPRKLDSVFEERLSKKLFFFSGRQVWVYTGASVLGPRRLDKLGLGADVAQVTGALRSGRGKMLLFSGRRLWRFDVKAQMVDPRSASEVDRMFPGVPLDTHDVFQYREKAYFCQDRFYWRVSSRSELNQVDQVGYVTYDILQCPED

Protease Inhibition (% of WT) (MMP8): 39 % of WT | Protease Inhibition (% of WT) (MMP7): 94 % of WT | Protease Inhibition (% of WT) (Elastase): 59 % of WT | Protease Inhibition (% of WT) (ADAMTS5): 217 % of WT | Protease Inhibition (% of WT) (MMP2): 66 % of WT | Protease Inhibition (% of WT) (MMP1): 84 % of WT | Protease Inhibition (% of WT) (MMP13): 46 % of WT | Protease Inhibition (% of WT) (MMP9): 45 % of WT | Protease Inhibition (% of WT) (Cathepsin G): 58 % of WT | Protease Inhibition (% of WT) (ADAMTS4): 68 % of WT | Protease Inhibition (% of WT) (MMP3): 26 % of WT
B1: Variant A2M, bait region SEQ ID NO 21 (other)
chain: SVSGKPQYMVLVPSLLHTETTEKGCVLLSYLNETVTVSASLESVRGNRSLFTDLEAENDVLHCVAFAVPKSSSNEEVMFLTVQVKGPTQEFKKRTTVMVKNEDSLVFVQTDKSIYKPGQTVKFRVVSMDENFHPLNELIPLVYIQDPKGNRIAQWQSFQLEGGLKQFSFPLSSEPFQGSYKVVVQKKSGGRTEHPFTVEEFVLPKFEVQVTVPKIITILEEEMNVSVCGLYTYGKPVPGHVTVSICRKYSDASDCHGEDSQAFCEKFSGQLNSHGCFYQQVKTKVFQLKRKEYEMKLHTEAQIQEEGTVVELTGRQSSEITRTITKLSFVKVDSHFRQGIPFFGQVRLVDGKGVPIPNKVIFIRGNEANYYSNATTDEHGLVQFSINTTNVMGTSLTVRVNYKDRSPCYGYQWVSEEHEEAHHTAYLVFSPSKSFVHLEPMSHELPCGHTQTVQAHYILNGGTLLGLKKLSFYYLIMAKGGIVRTGTHGLLVKQEDMKGHFSISIPVKSDIAPVARLLIYAVLPTGDVIGDSAKYDVENCLANKVDLSFSPSQSLPASHAHLRVTAAPQSVCALRAVDQSVLLMKPDAELSASSVYNLLPEKDLTGFPGPLNDQDDEDCINRHNVYINGITYTPVSSTNEKDMYSFLEDMGLKAFTNSKIRKPKMCPQLEHGPTEGEARGSPRYLTAIPENFYGVSEDLVVQISELEGRGSPHTKLRKYFPETWIWDLVVVNSAGVAEVGVTVPDTITEWKAGAFCLSEDAGLGISSTASLRAFQPFFVELTMPYSVIRGEAFTLKATVLNYLPKCIRVSVQLEASPAFLAVPVEKEQAPHCICANGRQTVSWAVTPKSLGNVNFTVSAEALESQELCGTEVPSVPEHGRKDTVIKPLLVEPEGLEKETTFNSLLCPSGGEVSEELSLKLPPNVVEESARASVSVLGDILGSAMQNTQNLLQMPYGCGEQNMVLFAPNIYVLDYLNETQQLTPEIKSKAIGYLNTGYQRQLNYKHYDGSYSTFGERYGRNQGNTWLTAFVLKTFAQARAYIFIDEAHITQALIWLSQRQKDNGCFRSSGSLLNNAIKGGVEDEVTLSAYITIALLEIPLTVTHPVVRNALFCLESAWKTAQEGDHGSHVYTKALLAYAFALAGNQDKRKEVLKSLNEEAVKKDNSVHWERPQKPKAPVGHFYEPQAPSAEVEMTSYVLLAYLTAQPAPTSEDLTSATNIVKWITKQQNAQGGFSSTQDTVVALHALSKYGAATFTRTGKAAQVTIQSSGTFSSKFQVDNNNRLLLQQVSLPELPGEYSMKVTGEGCVYLQTSLKYNILPEKEEFPFALGVQTLPQTCDEPKAHTSFQISLSVSYTGSRSASNMAIVDVKMVSGFIPLKPTVKMLERSNHVSRTEVSSNHVLIYLDKVSNQTLSLFFTVLQDVPVRDLKPAIVKVYDYYETDEFAIAEYNAPCSKDLGNADYKDDDDKGASHHHHHH

Protease Inhibition (% of WT) (MMP8): 54 % of WT | Protease Inhibition (% of WT) (MMP7): 75 % of WT | Protease Inhibition (% of WT) (Elastase): 92 % of WT | Protease Inhibition (% of WT) (ADAMTS5): 316 % of WT | Protease Inhibition (% of WT) (MMP2): 42 % of WT | Protease Inhibition (% of WT) (MMP1): 68 % of WT | Protease Inhibition (% of WT) (MMP13): 93 % of WT | Protease Inhibition (% of WT) (MMP9): 30 % of WT | Protease Inhibition (% of WT) (Cathepsin G): 78 % of WT | Protease Inhibition (% of WT) (ADAMTS4): 104 % of WT | Protease Inhibition (% of WT) (MMP3): 265 % of WT
B2: Variant A2M, bait region SEQ ID NO 22 (other)
chain: SVSGKPQYMVLVPSLLHTETTEKGCVLLSYLNETVTVSASLESVRGNRSLFTDLEAENDVLHCVAFAVPKSSSNEEVMFLTVQVKGPTQEFKKRTTVMVKNEDSLVFVQTDKSIYKPGQTVKFRVVSMDENFHPLNELIPLVYIQDPKGNRIAQWQSFQLEGGLKQFSFPLSSEPFQGSYKVVVQKKSGGRTEHPFTVEEFVLPKFEVQVTVPKIITILEEEMNVSVCGLYTYGKPVPGHVTVSICRKYSDASDCHGEDSQAFCEKFSGQLNSHGCFYQQVKTKVFQLKRKEYEMKLHTEAQIQEEGTVVELTGRQSSEITRTITKLSFVKVDSHFRQGIPFFGQVRLVDGKGVPIPNKVIFIRGNEANYYSNATTDEHGLVQFSINTTNVMGTSLTVRVNYKDRSPCYGYQWVSEEHEEAHHTAYLVFSPSKSFVHLEPMSHELPCGHTQTVQAHYILNGGTLLGLKKLSFYYLIMAKGGIVRTGTHGLLVKQEDMKGHFSISIPVKSDIAPVARLLIYAVLPTGDVIGDSAKYDVENCLANKVDLSFSPSQSLPASHAHLRVTAAPQSVCALRAVDQSVLLMKPDAELSASSVYNLLPEKDLTGFPGPLNDQDDEDCINRHNVYINGITYTPVSSTNEKDMYSFLEDMGLKAFTNSKIRKPKMCPQLEHGPEGEGEGEFRGVTIPENFFGVPRYLTASEDLVVQISELEGRGSPHTKLRKYFPETWIWDLVVVNSAGVAEVGVTVPDTITEWKAGAFCLSEDAGLGISSTASLRAFQPFFVELTMPYSVIRGEAFTLKATVLNYLPKCIRVSVQLEASPAFLAVPVEKEQAPHCICANGRQTVSWAVTPKSLGNVNFTVSAEALESQELCGTEVPSVPEHGRKDTVIKPLLVEPEGLEKETTFNSLLCPSGGEVSEELSLKLPPNVVEESARASVSVLGDILGSAMQNTQNLLQMPYGCGEQNMVLFAPNIYVLDYLNETQQLTPEIKSKAIGYLNTGYQRQLNYKHYDGSYSTFGERYGRNQGNTWLTAFVLKTFAQARAYIFIDEAHITQALIWLSQRQKDNGCFRSSGSLLNNAIKGGVEDEVTLSAYITIALLEIPLTVTHPVVRNALFCLESAWKTAQEGDHGSHVYTKALLAYAFALAGNQDKRKEVLKSLNEEAVKKDNSVHWERPQKPKAPVGHFYEPQAPSAEVEMTSYVLLAYLTAQPAPTSEDLTSATNIVKWITKQQNAQGGFSSTQDTVVALHALSKYGAATFTRTGKAAQVTIQSSGTFSSKFQVDNNNRLLLQQVSLPELPGEYSMKVTGEGCVYLQTSLKYNILPEKEEFPFALGVQTLPQTCDEPKAHTSFQISLSVSYTGSRSASNMAIVDVKMVSGFIPLKPTVKMLERSNHVSRTEVSSNHVLIYLDKVSNQTLSLFFTVLQDVPVRDLKPAIVKVYDYYETDEFAIAEYNAPCSKDLGNADYKDDDDKGASHHHHHH
